Source: US20140087995A1 (published 2014)
Numbered stars: 1 amine (or outer) side, 2 acyl side, 3 side chain; on linkers, the order of the positions; unused ones are H or OH. Bridge positions count the residues as written; N and C are the ends. Square brackets hold non-standard residues; d marks the D form. Side chains are listed from the residue outwards. Ends that are not written are not given here. * marks the point of attachment. C20 diacid = O=C(O)CCCCCCCCCCCCCCCCCCC(=O)*; γGlu = O=C(O)[C@H](CCC(=O)[*:2])N[*:1]

T1: human calcitonin receptor (human, UniProt P30988 25-474)
T1 sequence (looked up): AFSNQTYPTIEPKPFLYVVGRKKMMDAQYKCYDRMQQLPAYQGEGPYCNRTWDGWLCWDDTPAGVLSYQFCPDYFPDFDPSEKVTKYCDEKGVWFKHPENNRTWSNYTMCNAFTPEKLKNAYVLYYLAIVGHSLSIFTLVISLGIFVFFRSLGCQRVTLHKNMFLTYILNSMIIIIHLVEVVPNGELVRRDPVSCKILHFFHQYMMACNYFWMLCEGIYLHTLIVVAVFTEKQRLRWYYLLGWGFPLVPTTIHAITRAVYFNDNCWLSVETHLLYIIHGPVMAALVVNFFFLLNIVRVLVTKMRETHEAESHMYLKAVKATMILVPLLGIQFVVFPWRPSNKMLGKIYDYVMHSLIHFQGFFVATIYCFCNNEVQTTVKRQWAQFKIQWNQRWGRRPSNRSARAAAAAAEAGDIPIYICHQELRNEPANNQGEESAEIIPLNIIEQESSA


Target: T1, human calcitonin receptor
Test: cell-based or functional assay

Row | Binder | hCTR funct. EC50 (pM)
1 | K([γGlu-C20 diacid])CNTATCATQRLAEFLRHSSPNFGAIPSSTNVGPRTY-NH2 (disulfide 2-7; N-terminus assumed; SMILES CC[C@H](C)[C@H](NC(=O)[C@H](C)NC(=O)CNC(=O)[C@H](Cc1ccccc1)NC(=O)[C@H](CC(N)=O)NC(=O)[C@@H]1CCCN1C(=O)[C@H](CO)NC(=O)[C@H](CO)NC(=O)[C@H](Cc1c[nH]cn1)NC(=O)[C@H](CCCNC(=N)N)NC(=O)[C@H](CC(C)C)NC(=O)[C@H](Cc1ccccc1)NC(=O)[C@H](CCC(=O)O)NC(=O)[C@H](C)NC(=O)[C@H](CC(C)C)NC(=O)[C@H](CCCNC(=N)N)NC(=O)[C@H](CCC(N)=O)NC(=O)[C@@H](NC(=O)[C@H](C)NC(=O)[C@@H]1CSSC[C@H](NC(=O)[C@@H](N)CCCCNC(=O)CC[C@H](NC(=O)CCCCCCCCCCCCCCCCCCC(=O)O)C(=O)O)C(=O)N[C@@H](CC(N)=O)C(=O)N[C@@H]([C@@H](C)O)C(=O)N[C@@H](C)C(=O)N[C@@H]([C@@H](C)O)C(=O)N1)[C@@H](C)O)C(=O)N1CCC[C@H]1C(=O)N[C@@H](CO)C(=O)N[C@@H](CO)C(=O)N[C@H](C(=O)N[C@@H](CC(N)=O)C(=O)N[C@H](C(=O)NCC(=O)N1CCC[C@H]1C(=O)N[C@@H](CCCNC(=N)N)C(=O)N[C@H](C(=O)N[C@@H](Cc1ccc(O)cc1)C(N)=O)[C@@H](C)O)C(C)C)[C@@H](C)O, synthetic peptide amide) | 6380 pM
2 | K([γGlu-C20 diacid])CNTATCATQRLAEFLRHSSPNFGAIPSSTNVGPHTY-NH2 (disulfide 2-7, synthetic peptide amide) | 1450 pM
3 | K([γGlu-γGlu-C20 diacid])CNTATCATQRLADFLRHSSPNFGAIPSSTNVGPRTY-NH2 (disulfide 2-7, synthetic peptide amide; also called compound 130) | 7280 pM
4 | K([γGlu-γGlu-C20 diacid])CNTATCATQRLA[dD]FLRHSSPNFGAIPSSTNVGSRTY-NH2 (disulfide 2-7; N-terminus assumed; SMILES CC[C@H](C)[C@H](NC(=O)[C@H](C)NC(=O)CNC(=O)[C@H](Cc1ccccc1)NC(=O)[C@H](CC(N)=O)NC(=O)[C@@H]1CCCN1C(=O)[C@H](CO)NC(=O)[C@H](CO)NC(=O)[C@H](Cc1c[nH]cn1)NC(=O)[C@H](CCCNC(=N)N)NC(=O)[C@H](CC(C)C)NC(=O)[C@H](Cc1ccccc1)NC(=O)[C@@H](CC(=O)O)NC(=O)[C@H](C)NC(=O)[C@H](CC(C)C)NC(=O)[C@H](CCCNC(=N)N)NC(=O)[C@H](CCC(N)=O)NC(=O)[C@@H](NC(=O)[C@H](C)NC(=O)[C@@H]1CSSC[C@H](NC(=O)[C@@H](N)CCCCNC(=O)CC[C@H](NC(=O)CC[C@H](NC(=O)CCCCCCCCCCCCCCCCCCC(=O)O)C(=O)O)C(=O)O)C(=O)N[C@@H](CC(N)=O)C(=O)N[C@@H]([C@@H](C)O)C(=O)N[C@@H](C)C(=O)N[C@@H]([C@@H](C)O)C(=O)N1)[C@@H](C)O)C(=O)N1CCC[C@H]1C(=O)N[C@@H](CO)C(=O)N[C@@H](CO)C(=O)N[C@H](C(=O)N[C@@H](CC(N)=O)C(=O)N[C@H](C(=O)NCC(=O)N[C@@H](CO)C(=O)N[C@@H](CCCNC(=N)N)C(=O)N[C@H](C(=O)N[C@@H](Cc1ccc(O)cc1)C(N)=O)[C@@H](C)O)C(C)C)[C@@H](C)O, synthetic peptide amide) | 100000 pM
5 | K([γGlu-γGlu-C20 diacid])CNTATCATQRLAEFLRHSSPNFGAIPSSTNVGRETY-NH2 (disulfide 2-7; N-terminus assumed; SMILES CC[C@H](C)[C@H](NC(=O)[C@H](C)NC(=O)CNC(=O)[C@H](Cc1ccccc1)NC(=O)[C@H](CC(N)=O)NC(=O)[C@@H]1CCCN1C(=O)[C@H](CO)NC(=O)[C@H](CO)NC(=O)[C@H](Cc1c[nH]cn1)NC(=O)[C@H](CCCNC(=N)N)NC(=O)[C@H](CC(C)C)NC(=O)[C@H](Cc1ccccc1)NC(=O)[C@H](CCC(=O)O)NC(=O)[C@H](C)NC(=O)[C@H](CC(C)C)NC(=O)[C@H](CCCNC(=N)N)NC(=O)[C@H](CCC(N)=O)NC(=O)[C@@H](NC(=O)[C@H](C)NC(=O)[C@@H]1CSSC[C@H](NC(=O)[C@@H](N)CCCCNC(=O)CC[C@H](NC(=O)CC[C@H](NC(=O)CCCCCCCCCCCCCCCCCCC(=O)O)C(=O)O)C(=O)O)C(=O)N[C@@H](CC(N)=O)C(=O)N[C@@H]([C@@H](C)O)C(=O)N[C@@H](C)C(=O)N[C@@H]([C@@H](C)O)C(=O)N1)[C@@H](C)O)C(=O)N1CCC[C@H]1C(=O)N[C@@H](CO)C(=O)N[C@@H](CO)C(=O)N[C@H](C(=O)N[C@@H](CC(N)=O)C(=O)N[C@H](C(=O)NCC(=O)N[C@@H](CCCNC(=N)N)C(=O)N[C@@H](CCC(=O)O)C(=O)N[C@H](C(=O)N[C@@H](Cc1ccc(O)cc1)C(N)=O)[C@@H](C)O)C(C)C)[C@@H](C)O, synthetic peptide amide) | 7430 pM
6 | K([γGlu-γGlu-C20 diacid])CNTATCATQRLAEFLRHSSPNFGAIPSSTNVGHETY-NH2 (disulfide 2-7; N-terminus assumed; SMILES CC[C@H](C)[C@H](NC(=O)[C@H](C)NC(=O)CNC(=O)[C@H](Cc1ccccc1)NC(=O)[C@H](CC(N)=O)NC(=O)[C@@H]1CCCN1C(=O)[C@H](CO)NC(=O)[C@H](CO)NC(=O)[C@H](Cc1c[nH]cn1)NC(=O)[C@H](CCCNC(=N)N)NC(=O)[C@H](CC(C)C)NC(=O)[C@H](Cc1ccccc1)NC(=O)[C@H](CCC(=O)O)NC(=O)[C@H](C)NC(=O)[C@H](CC(C)C)NC(=O)[C@H](CCCNC(=N)N)NC(=O)[C@H](CCC(N)=O)NC(=O)[C@@H](NC(=O)[C@H](C)NC(=O)[C@@H]1CSSC[C@H](NC(=O)[C@@H](N)CCCCNC(=O)CC[C@H](NC(=O)CC[C@H](NC(=O)CCCCCCCCCCCCCCCCCCC(=O)O)C(=O)O)C(=O)O)C(=O)N[C@@H](CC(N)=O)C(=O)N[C@@H]([C@@H](C)O)C(=O)N[C@@H](C)C(=O)N[C@@H]([C@@H](C)O)C(=O)N1)[C@@H](C)O)C(=O)N1CCC[C@H]1C(=O)N[C@@H](CO)C(=O)N[C@@H](CO)C(=O)N[C@H](C(=O)N[C@@H](CC(N)=O)C(=O)N[C@H](C(=O)NCC(=O)N[C@@H](Cc1c[nH]cn1)C(=O)N[C@@H](CCC(=O)O)C(=O)N[C@H](C(=O)N[C@@H](Cc1ccc(O)cc1)C(N)=O)[C@@H](C)O)C(C)C)[C@@H](C)O, synthetic peptide amide) | 7050 pM
7 | K([γGlu-γGlu-C20 diacid])CNTATCATQRLANFLRHSSPNFGAIPSSTPVGPRTY-NH2 (disulfide 2-7; N-terminus assumed; SMILES CC[C@H](C)[C@H](NC(=O)[C@H](C)NC(=O)CNC(=O)[C@H](Cc1ccccc1)NC(=O)[C@H](CC(N)=O)NC(=O)[C@@H]1CCCN1C(=O)[C@H](CO)NC(=O)[C@H](CO)NC(=O)[C@H](Cc1c[nH]cn1)NC(=O)[C@H](CCCNC(=N)N)NC(=O)[C@H](CC(C)C)NC(=O)[C@H](Cc1ccccc1)NC(=O)[C@H](CC(N)=O)NC(=O)[C@H](C)NC(=O)[C@H](CC(C)C)NC(=O)[C@H](CCCNC(=N)N)NC(=O)[C@H](CCC(N)=O)NC(=O)[C@@H](NC(=O)[C@H](C)NC(=O)[C@@H]1CSSC[C@H](NC(=O)[C@@H](N)CCCCNC(=O)CC[C@H](NC(=O)CC[C@H](NC(=O)CCCCCCCCCCCCCCCCCCC(=O)O)C(=O)O)C(=O)O)C(=O)N[C@@H](CC(N)=O)C(=O)N[C@@H]([C@@H](C)O)C(=O)N[C@@H](C)C(=O)N[C@@H]([C@@H](C)O)C(=O)N1)[C@@H](C)O)C(=O)N1CCC[C@H]1C(=O)N[C@@H](CO)C(=O)N[C@@H](CO)C(=O)N[C@H](C(=O)N1CCC[C@H]1C(=O)N[C@H](C(=O)NCC(=O)N1CCC[C@H]1C(=O)N[C@@H](CCCNC(=N)N)C(=O)N[C@H](C(=O)N[C@@H](Cc1ccc(O)cc1)C(N)=O)[C@@H](C)O)C(C)C)[C@@H](C)O, synthetic peptide amide) | 8660 pM
8 | K([γGlu-γGlu-C20 diacid])CNTATCATQRLAEFLRHSSPNFGAIPSSTNVGPRTY-NH2 (disulfide 2-7; N-terminus assumed; SMILES CC[C@H](C)[C@H](NC(=O)[C@H](C)NC(=O)CNC(=O)[C@H](Cc1ccccc1)NC(=O)[C@H](CC(N)=O)NC(=O)[C@@H]1CCCN1C(=O)[C@H](CO)NC(=O)[C@H](CO)NC(=O)[C@H](Cc1c[nH]cn1)NC(=O)[C@H](CCCNC(=N)N)NC(=O)[C@H](CC(C)C)NC(=O)[C@H](Cc1ccccc1)NC(=O)[C@H](CCC(=O)O)NC(=O)[C@H](C)NC(=O)[C@H](CC(C)C)NC(=O)[C@H](CCCNC(=N)N)NC(=O)[C@H](CCC(N)=O)NC(=O)[C@@H](NC(=O)[C@H](C)NC(=O)[C@@H]1CSSC[C@H](NC(=O)[C@@H](N)CCCCNC(=O)CC[C@H](NC(=O)CC[C@H](NC(=O)CCCCCCCCCCCCCCCCCCC(=O)O)C(=O)O)C(=O)O)C(=O)N[C@@H](CC(N)=O)C(=O)N[C@@H]([C@@H](C)O)C(=O)N[C@@H](C)C(=O)N[C@@H]([C@@H](C)O)C(=O)N1)[C@@H](C)O)C(=O)N1CCC[C@H]1C(=O)N[C@@H](CO)C(=O)N[C@@H](CO)C(=O)N[C@H](C(=O)N[C@@H](CC(N)=O)C(=O)N[C@H](C(=O)NCC(=O)N1CCC[C@H]1C(=O)N[C@@H](CCCNC(=N)N)C(=O)N[C@H](C(=O)N[C@@H](Cc1ccc(O)cc1)C(N)=O)[C@@H](C)O)C(C)C)[C@@H](C)O, synthetic peptide amide; also called compound 110) | 8160 pM
9 | K([γGlu-γGlu-C20 diacid])CNTATCATQRLADFLRHSSPNFGAIPSSTNVGPETY-NH2 (disulfide 2-7, synthetic peptide amide) | 843 pM
